{
  "source": "the DeepSol protein solubility set",
  "test": "soluble on expression in E. coli; label from the status in PepcDB or PDB records",
  "data": [
    {"sequence": "MGSDKIHHHHHHMKIALIQPKMNKRPMDTDLKTRMSPPLSLLTLMGLTPEGHEVIMVNENVEKIDYACGAELVGITITLDVMPRAVEIAEEFHRLGIPVVAGGIHVTSSPDECRGYFDAICIGAAERVWERMIEDAEESRLQQVYHDMTDFRGEEIASPAYHRIDKNRYLYTNIMTTSRGCPNRCGFCYNSCRNRMYIRRPVTDVLRDIEGLGTRHILFIDDNFIGVPAYTRELLNHLRGRELKWSAAVTTKIADYPDVLDLMAETGCQSLFIGFESINNSSLHGVNKDNQFEKYERIVTAIHSRGIMINASMVFGLDGDEPDVFQRTLDWLVKNKIETLTSHILTPYPGTELHGRMKEEGRILDHELSRYNTAHVVFQPKGMTAEELYKGYLWIYREFYSFPNIWRRRPEHKAQRKSFFLFNILYRKFGGLTSVLARIIPMRTVGRLAARISYRVK", "values": [
      {"measurement": "soluble on expression in E. coli", "result": "not soluble"}
    ]},
    {"sequence": "MGSDKIHHHHHHMDNPFARFAGTRTIQANLSLLEENYVPDSFPHRENQINEMVTILSSIMRGSRPSNIIVYGKTGTGKTSTTKYVTKMLVEAASNVSVVYVNCEIYDSPYSILVAIANSAGEEKIPELGWPIDRIYRETVERVEKTGKFFIIILDEMDRLIKKNGGDSLYVLLKLMTDVDSVRVSMIGITNDTTVLENIDARIKSRLNQESIVFPPYNASEIRDIISSRLDKVLGPGVVDDTAINLCAAIGAQEHGDARKAIDLMRIAIEIAIRENRNKITENEIYEARERYEMNVLREAISTLPLHSKIVLLSAVVTQEIEPNSVITGEIYENYRRICDDLGFSPLSPRRISDLLTELADYGLLVMDDRNMGKYGRTRSFSVVHQAETIKKYLLEDENLSMFKSSKMPKQTRFDT", "values": [
      {"measurement": "soluble on expression in E. coli", "result": "not soluble"}
    ]},
    {"sequence": "MLVVPARLHRWPPEVQDLFGREGPLVLEIGFGDGRFTAELARSRPDWLVLGAEVSAASVLRALRRMRREGLANVRLYHGQGPFALRNLVLPGTLDQVIVNFPDPWPKKRHQERRLLREAFFRRLSTRLKPGGSLLLTTDHEEYFRFALEEAERTGLYRVEVRPPPEAHLRTKYALKWKEAGRAFFHAAFIKLREDPAPWPPLRRYDVAHALLSGELPQDLALEKTPVRLKEGVAVFLEVARGKEGFYVLTHVEEEDLTQDLLLEVRKSARGVYAGVSRFGSPLITEAVKGAVRALVDRLEAHGLEVVQDHT", "values": [
      {"measurement": "soluble on expression in E. coli", "result": "soluble"}
    ]},
    {"sequence": "MNYELLTTENAPVKMWTKGVPVEADARQQLINTAKMPFIFKHIAVMPDVHLGKGSTIGSVIPTKGAIIPAAVGVDIGCGMNALRTALTAADLPENLAELRQAIETAVPHGRTTGRCKRDKGAWENPPFNVDAKWAELEAGYQWLTQKYPRFLNTNNYKHLGTLGTGNHFIEICLDESEQVWIMLHSGSRGIGNAIGTYFIDLAQKEMQDQLETLPSRDLAYFMEGTEYFDDYLRAVAWAQLFASLNRDAMMENVVTALQSITQKTVRQPQTLAMEEINCHHNYVQKEQLFGEEIYVTRKGAVSARAGQYGIIPGSMGAKSFIVRGLGNEESFCSCSHGAGRVMSRTKAKKLFSVEDQIRATAHVECRKDAEVIDEIPMAYKDIDAVMAAQSDLVEVIYTLRQVVCVKG", "values": [
      {"measurement": "soluble on expression in E. coli", "result": "not soluble"}
    ]},
    {"sequence": "MSLSNERSSEKTLQNLKTQLLEDSSFLSKLREKITPHIDDHDIQKIIRDYLLTNPEIIIEMQLILQDKLEKQSAQNTQKQASIINSLKKQIFQSPYDAVLGNPNGKRVLVDFFDYNCGYCKISYPYIENLIKEYPDLRVIIKDLPILGSDSMAAHIVAYAFRKQFPEKYPQFYKELLTHQSRANEIKAIKIAVSLGADEKKLRNAIKDSSLQNAFKKNIQIASRLNITGTPSYIIGDKLLIGAVSEEILKEAIENMQEGHHHHHH", "values": [
      {"measurement": "soluble on expression in E. coli", "result": "soluble"}
    ]},
    {"sequence": "MTAVPLPILHLPHNALQMSLKQMSTVEHLALSFVSNKTRRLIKMLKEKNHITCISMGSPISIDFLSLTFDYKSNQKIVKIDNPEQNGSLSRLNLPGFTEKQWIEHFANVFIQNKKVMLISDLGERKIEDIYESIKDLNIVTLDIMTSEFQDCKLFKLFPTLEELGVSETPLSAPIFVQNFQSLTAIDVTLDDILSSNCTNLCLDDQLISDKDLNIFMRNWIKGSNPRLRKLTNTSVRHERDISDSVFFRGISQIKTRDWCDEDTFDKEFEIKNEDGVRAKVTLSTFSFIFCIEDF", "values": [
      {"measurement": "soluble on expression in E. coli", "result": "not soluble"}
    ]},
    {"sequence": "SLRGWRGLRVYDMHVHLHEYSDREVEEILDADKSLVVVAVSDDLESAWRTLDLWHTFGGRVVPCLGFHPWNVREGRVWEAWEVLRLAYRYGVPCLGEVGLDRRFVDEYTWRVQNEVFDAFVQLAEDMGVMLNIHAPDAWKHVAHRIGWTSRARFMYHWYTGPATLPRALPEGRVWFSINSAIRVQEKSVRVAREIPLRSLVVESDGPYNYRGLRLSPLMVRETVKLVAEARGEDPGRLMEAISLNSERLLGLL", "values": [
      {"measurement": "soluble on expression in E. coli", "result": "soluble"}
    ]},
    {"sequence": "MRTVAALLFLFTCLESFESSSATPVCTNGFTLINNKCLKLLNTPVNHKAAEISCSSFGATLVTVKNDHDNQAIATIVGSSTPLVWLGLYCFSSNSSQCLWDDESGSARSYNNFSSGFPLVALGQCVYYSTQGALTGKWLSAECESQRMAFVCELPTTFADNCLHNYNGYCYTFSSSPQTFIGAQSTCAQTCGNLASVHSPNENRYITTFAPQDYYYIGAIWKTDYSLRWMDGSAWDYNNIDPIYPNRYNYCLHMSTITTSGSGFWYGDDCSLSRKYVCKREAGVPCTTVPPPVTVRPSSTNPSNCNAGLLMSPGVFTSPNYPQNYFNNENCTYQLSTLGSYRITLKFSNFRTESNYDFVSVYDGPTTSSPSLGRYSGNIGSFYVSSSENNMLVTFTSDAGVVFQGFTARFYSVVHRS", "values": [
      {"measurement": "soluble on expression in E. coli", "result": "not soluble"}
    ]},
    {"sequence": "MSLAKLNMNNEIKKVEQRLEKAIKSKDSVLEQASLHLLSSGGKRVRPAFVILSSQFGKDEQTSEQTYQVAVALELIHMATLVHDDVIDKSDKRRGKLTISKKWDQTTAILTGNFLLALGLEHLMAVKDNRVHQLISESIVDVCRGELFQFQDQFNSQQTIINYLRRINRKTALLIQISTEVGAITSQSDKETVRKLKMIGHYIGMSFQIIDDVLDFTSTEKKLGKPVGSDLLNGHITLPILLEMRKNPDFKLKIEQLRRDSERKEFEECIQIIRKSDSIDEAKAVSSKYLSKALNLISELPDGHPKSLLLSLTKKMGSRNTEGHHHHHH", "values": [
      {"measurement": "soluble on expression in E. coli", "result": "soluble"}
    ]},
    {"sequence": "MSLRIEEIRRYHESLMVELDRIYRIAEAARKKGLDPELSVEIPIAKNMAERVEKLMNLQGLAKRIMELEEGGLSRELICFKVADEIVEGKFGEMPKEEAIDKAVRTAVAIMTEGVVAAPIEGIARVRIDRENFLRVYYAGPIRSAGGTAQVISVLVADYVRRKAEIGRYVPTEEEILRYCEEIPLYKKVANLQYLPSDEEIRLIVSNCPICIDGEPTESAEVSGYRNLPRVETNRVRGGMALVIAEGIALKAPKLKKMVDEVGIEGWEWLDALIKGEGHHHHHH", "values": [
      {"measurement": "soluble on expression in E. coli", "result": "soluble"}
    ]},
    {"sequence": "MSLNSNHKQPIFDNVLNRKFQVNEPNRAYVSDMTYIPTHEGWLYLTVVIDLFSRKVVGWNMSSRMKADTVCDALTMAIWQRKPKAGLIVHSDRGSQYASKQYRSLLNQHGLVGSMSKKGDCWDNSVAESFFSRLKDELVHWRNYQTRREAKQDILDYMTMFYNNQRLHSSLDYLSPNQFENRYWGLMKKVAEGHHHHHH", "values": [
      {"measurement": "soluble on expression in E. coli", "result": "soluble"}
    ]},
    {"sequence": "MALNRMRQAKGAVASLLQNAYVHRDQVSLISFRGKQAQVLLPPSQSVDRAKRELDVLPTGGGTPLASALLTGWETAKQARAKGITQIMFVMITDGRGNIPLGAAYDPNATKASKEELEKEVEALALSIQADGIASIVVDTQMNYLSRGEAPKLAQKLGGRYFYLPNAKAEQIVEAALS", "values": [
      {"measurement": "soluble on expression in E. coli", "result": "not soluble"}
    ]},
    {"sequence": "MGSDKIHHHHHHMPASSHQPLDLAKFTLSSPTEIAQHLSNIAKHGHMVTVFANKGKNFILTRLLEVDYQAGVFTFDWGAEEETNTQVLNSERNVFVCSPEGVKTQFVAGQISQVMVDDRPAFQCRLPEQVIKLQRREFFRIQTPLGSPVFCRIGDFNQRSIDLALFDISLGGMSLWLPGIDTPGFDIGQQYLQCSIDLKPFGTLALGIEVRHRLTARMRNGNEAMRIGCSYLNLSAPMETIIQRYVGFLERERRAMVG", "values": [
      {"measurement": "soluble on expression in E. coli", "result": "not soluble"}
    ]},
    {"sequence": "MHHHHHHMSGGLTPDQAIDAIRGTGGAQPGCRALHAKGTLYRGTFTATRDAVMLSAAPHLDGSTVPALIRFSNGSGNPKQRDGAPGVRGMAVKFTLPDGSTTDVSAQTARLLVSSTPEGFIDLLKAMRPGLTTPLRLATHLLTHPRLLGALPLLREANRIPASYATTEYHGLHAFRWIAADGSARFVRYHLVPTAAEEYLSASDARGKDPDFLTDELAARLQDGPVRFDFRVQIAGPTDSTVDPSSAWQSTQIVTVGTVTITGPDTEREHGGDIVVFDPMRVTDGIEPSDDPVLRFRTLVYSASVKLRTGVDRGAQAPPV", "values": [
      {"measurement": "soluble on expression in E. coli", "result": "soluble"}
    ]}
  ]
}
